# Source: patent publication US20230321287A1, “RADIOLABELLED GRPR-ANTAGONIST FOR USE AS THERAGNOSTIC” (NOVARTIS AG, priority 2019, published 2023)
# Key:
# [1] = clinical; conditions: for tissue uptake at 2 h / tissue uptake at 4 h / tissue uptake at 0.25 h / tissue uptake at 1 h: human, Relative radiotracer uptake
# Description: The primary objective was to characterize preliminary targeting properties of [68Ga] NeoB in patients with malignancies known to overexpress GRPR. The primary efficacy endpoints were: • Number and location of tumor lesions detected by [68Ga]-NeoBOMB1 overall and for each tumor type • Calculation of the ratio tumor/background standard uptake value (SUV) and %injected dose per gram of tissue (ID/g) and calculation of absorbed dose (mGy/MBq) in tumor overall and for each tumor type.
# Accordingly, highest relative tracer uptake following administration of a bombesin antagonist is expected in pancreas, kidney, and liver (Roivainen et al, 2013).
# [2] = maximum injected activity of 250 MBq
# [3] = molecular target: GRPR (Homo sapiens, UniProt P30550); conditions: GRPR expressed in breast, prostate and GIST; non-clinical models; cited from earlier work
# Chain of GRPR (P30550 whole entry, species assumed): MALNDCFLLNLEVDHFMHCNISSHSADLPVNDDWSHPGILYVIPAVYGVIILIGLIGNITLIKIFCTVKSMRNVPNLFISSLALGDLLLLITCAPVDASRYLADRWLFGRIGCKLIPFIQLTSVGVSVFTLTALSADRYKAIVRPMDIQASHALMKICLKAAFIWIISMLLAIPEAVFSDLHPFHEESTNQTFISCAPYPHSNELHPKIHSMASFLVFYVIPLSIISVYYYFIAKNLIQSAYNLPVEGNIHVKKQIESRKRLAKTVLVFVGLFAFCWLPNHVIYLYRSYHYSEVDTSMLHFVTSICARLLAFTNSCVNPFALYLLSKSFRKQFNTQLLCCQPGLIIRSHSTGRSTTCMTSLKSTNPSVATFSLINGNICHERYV
structure (smiles),measurement,setting,value
"CC(C)CC(CC(C)C)NC(=O)[C@H](Cc1cnc[nH]1)NC(=O)CNC(=O)[C@@H](NC(=O)[C@H](C)NC(=O)[C@H](Cc1c[nH]c2ccccc12)NC(=O)[C@H](CCC(N)=O)NC(=O)[C@@H](Cc1ccccc1)NC(=O)COCC(=O)Nc1ccc(CNC(=O)CN2CCN(CC(=O)O)CCN(CC(=O)O)CCN(CC(=O)O)CC2)cc1)C(C)C [[68Ga]-NeoB, metal not drawn]",tissue uptake at 2 h,"[1]; tumor lesion T2-lungR, total radioactivity, patient FR01-009, 120 min/123.9 min actual",0.00377 %ID/g
same,tissue uptake at 4 h,"[1]; tumor lesion T2-lungR, total radioactivity, patient FR01-009, 240 min/207.9 min actual",0.00248 %ID/g
same,tissue uptake at 0.25 h,"[1]; tumor lesion T3-liverL, total radioactivity, patient FR01-009, 15 min/17.8 min actual",0.0135 %ID/g
same,tissue uptake at 1 h,"[1]; tumor lesion T3-liverL, total radioactivity, patient FR01-009, 60 min/60.7 min actual",0.018 %ID/g
same,tissue uptake at 2 h,"[1]; tumor lesion T3-liverL, total radioactivity, patient FR01-009, 120 min/123.9 min actual",0.00984 %ID/g
same,tissue uptake at 4 h,"[1]; tumor lesion T3-liverL, total radioactivity, patient FR01-009, 240 min/207.9 min actual",0.0178 %ID/g
same,tissue uptake at 0.25 h,"[1]; tumor lesion T4-liverR1, total radioactivity, patient FR01-009, tumor lesion T4-liverR1, 15 min/17.8 min actual",0.013 %ID/g
same,tissue uptake at 1 h,"[1]; tumor lesion T4-liverR1, total radioactivity, patient FR01-009, tumor lesion T4-liverR1, 60 min/60.7 min actual",0.014 %ID/g
same,tissue uptake at 2 h,"[1]; tumor lesion T4-liverR1, total radioactivity, patient FR01-009, tumor lesion T4-liverR1, 120 min/123.9 min actual",0.0153 %ID/g
same,tissue uptake at 4 h,"[1]; tumor lesion T4-liverR1, total radioactivity, patient FR01-009, tumor lesion T4-liverR1, 240 min/207.9 min actual",0.0116 %ID/g
same,tissue uptake at 0.25 h,"[1]; tumor lesion T5-liverR2, total radioactivity, patient FR01-009, tumor lesion T5-liverR2, 15 min/17.8 min actual",0.015 %ID/g
same,tissue uptake at 1 h,"[1]; tumor lesion T5-liverR2, total radioactivity, patient FR01-009, tumor lesion T5-liverR2, 60 min/60.7 min actual",0.0193 %ID/g
same,tissue uptake at 2 h,"[1]; tumor lesion T5-liverR2, total radioactivity, patient FR01-009, tumor lesion T5-liverR2, 120 min/123.9 min actual",0.022 %ID/g
same,tissue uptake at 4 h,"[1]; tumor lesion T5-liverR2, total radioactivity, patient FR01-009, tumor lesion T5-liverR2, 240 min/207.9 min actual",0.0212 %ID/g
same,tissue uptake at 0.25 h,"[1]; tumor lesion T6-sacrumL, total radioactivity, patient FR01-009, 15 min/17.8 min actual",0.00315 %ID/g
same,tissue uptake at 1 h,"[1]; tumor lesion T6-sacrumL, total radioactivity, patient FR01-009, 60 min/60.7 min actual",0.00289 %ID/g
same,tissue uptake at 2 h,"[1]; tumor lesion T6-sacrumL, total radioactivity, patient FR01-009, 120 min/123.9 min actual",0.00254 %ID/g
same,tissue uptake at 4 h,"[1]; tumor lesion T6-sacrumL, total radioactivity, patient FR01-009, 240 min/207.9 min actual",0.00188 %ID/g
same,tissue uptake at 0.25 h,"[1]; tumor lesion T7-liverP, total radioactivity, patient FR01-009, 15 min/17.8 min actual",0.0122 %ID/g
same,tissue uptake at 1 h,"[1]; tumor lesion T7-liverP, total radioactivity, patient FR01-009, 60 min/60.7 min actual",0.0118 %ID/g
same,tissue uptake at 2 h,"[1]; tumor lesion T7-liverP, total radioactivity, patient FR01-009, 120 min/123.9 min actual",0.0124 %ID/g
same,tissue uptake at 4 h,"[1]; tumor lesion T7-liverP, total radioactivity, patient FR01-009, 240 min/207.9 min actual",0.0108 %ID/g
same,tissue uptake at 0.25 h,"[1]; tumor lesion T8-liverR, total radioactivity, patient FR01-009, 15 min/17.8 min actual",0.0108 %ID/g
same,tissue uptake at 1 h,"[1]; tumor lesion T8-liverR, total radioactivity, patient FR01-009, 60 min/60.7 min actual",0.00961 %ID/g
same,tissue uptake at 2 h,"[1]; tumor lesion T8-liverR, total radioactivity, patient FR01-009, 120 min/123.9 min actual",0.0109 %ID/g
same,tissue uptake at 0.25 h,"[1]; urinary bladder wall, total radioactivity, patient FR01-008, 15 min/38.6 min actual",0.0313 %ID/g
same,tissue uptake at 1 h,"[1]; urinary bladder wall, total radioactivity, patient FR01-008, 60 min/62.6 min actual",0.0426 %ID/g
same,tissue uptake at 2 h,"[1]; urinary bladder wall, total radioactivity, patient FR01-008, 120 min/123.2 min actual",0.0214 %ID/g
same,tissue uptake at 4 h,"[1]; urinary bladder wall, total radioactivity, patient FR01-008, 240 min/221.1 min actual",0.0179 %ID/g
same,tissue uptake at 0.25 h,"[1]; urinary bladder wall, total radioactivity, patient FR01-009, 15 min/17.8 min actual",0.0268 %ID/g
same,tissue uptake at 1 h,"[1]; urinary bladder wall, total radioactivity, patient FR01-009, 60 min/60.7 min actual",0.0648 %ID/g
same,tissue uptake at 2 h,"[1]; urinary bladder wall, total radioactivity, patient FR01-009, 120 min/123.9 min actual",0.0405 %ID/g
same,tissue uptake at 4 h,"[1]; urinary bladder wall, total radioactivity, patient FR01-009, 240 min/207.9 min actual",0.11 %ID/g
same,Relative radiotracer uptake,"[1]; patient FR01-008, Alveolar-interstitial (Lungs), 15 min/38.6 min actual",2.1842E-03 %ID/g
same,Relative radiotracer uptake,"[1]; patient FR01-008, Alveolar-interstitial (Lungs), 60 min/62.6 min actual",9.4759E-04 %ID/g
same,Relative radiotracer uptake,"[1]; patient FR01-008, Alveolar-interstitial (Lungs), 120 min/123.2 min actual",6.7856E-04 %ID/g
same,Relative radiotracer uptake,"[1]; patient FR01-008, Alveolar-interstitial (Lungs), 240 min/221.1 min actual",6.2082E-04 %ID/g
same,Relative radiotracer uptake,"[1]; patient FR01-008, Heart wall, 15 min/38.6 min actual",6.0002E-03 %ID/g
same,Relative radiotracer uptake,"[1]; patient FR01-008, Heart wall, 60 min/62.6 min actual",2.4054E-03 %ID/g
same,Relative radiotracer uptake,"[1]; patient FR01-008, Heart wall, 120 min/123.2 min actual",1.6323E-03 %ID/g
same,Relative radiotracer uptake,"[1]; patient FR01-008, Heart wall, 240 min/221.1 min actual",1.3018E-03 %ID/g
same,Relative radiotracer uptake,"[1]; patient FR01-008, Kidneys, 15 min/38.6 min actual",6.8821E-03 %ID/g
same,Relative radiotracer uptake,"[1]; patient FR01-008, Kidneys, 60 min/62.6 min actual",5.7654E-03 %ID/g
same,Relative radiotracer uptake,"[1]; patient FR01-008, Kidneys, 120 min/123.2 min actual",2.3856E-03 %ID/g
same,Relative radiotracer uptake,"[1]; patient FR01-008, Kidneys, 240 min/221.1 min actual",1.4872E-03 %ID/g
same,Relative radiotracer uptake,"[1]; patient FR01-008, Spleen, 240 min/221.1 min actual",1.2014E-03 %ID/g
same,Relative radiotracer uptake,"[1]; patient FR01-008, tumor lesion T1-Chest, 15 min/38.6 min actual",3.4664E-03 %ID/g
same,Relative radiotracer uptake,"[1]; patient FR01-008, tumor lesion T1-Chest, 60 min/62.6 min actual",2.1832E-03 %ID/g
same,Relative radiotracer uptake,"[1]; patient FR01-008, tumor lesion T1-Chest, 120 min/123.2 min actual",1.4935E-03 %ID/g
same,Relative radiotracer uptake,"[1]; patient FR01-008, tumor lesion T1-Chest, 240 min/221.1 min actual",1.2884E-03 %ID/g
same,Relative radiotracer uptake,"[1]; patient FR01-008, tumor lesion T2-Left rib, 15 min/38.6 min actual",3.8441E-03 %ID/g
same,Relative radiotracer uptake,"[1]; patient FR01-008, tumor lesion T2-Left rib, 60 min/62.6 min actual",2.5064E-03 %ID/g
same,Relative radiotracer uptake,"[1]; patient FR01-008, tumor lesion T2-Left rib, 120 min/123.2 min actual",1.7251E-03 %ID/g
same,Relative radiotracer uptake,"[1]; patient FR01-008, tumor lesion T2-Left rib, 240 min/221.1 min actual",1.6681E-03 %ID/g
same,Relative radiotracer uptake,"[1]; patient FR01-008, tumor lesion T3-Spine, 15 min/38.6 min actual",4.6895E-03 %ID/g
same,Relative radiotracer uptake,"[1]; patient FR01-008, tumor lesion T3-Spine, 60 min/62.6 min actual",2.2489E-03 %ID/g
same,Relative radiotracer uptake,"[1]; patient FR01-008, tumor lesion T3-Spine, 120 min/123.2 min actual",1.8497E-03 %ID/g
same,Relative radiotracer uptake,"[1]; patient FR01-008, tumor lesion T3-Spine, 240 min/221.1 min actual",1.9539E-03 %ID/g
same,estimated effective dose per exam,[2],7.25 mSv
same,affinity to the GRPR,[3],high affinity
